Patent US20080242590A1, “New Method 706” (ASTRAZENECA AB, priority 2007, published 2008)

Assays:
mouse Aβ40 = test: Mouse Aβ40 in plasma, time and dose response 1.5 and 3 hours (Example 24); format: in vivo, C57BL/6 mice
Protocol: The objective with this study was to evaluate the time and dose-response effect of hFc-Nep in plasma of female C57BL/6 mice after an acute treatment. The specific purpose is to find an effect on plasma Aβ40 and to correlate effect to exposure level of hFc-Nep in plasma. The γ-secretase inhibitor M-550426 is included as a positive control.
13 weeks old female C57BL/6 mice (10 mice/group) received vehicle or hFc-Nep at 1 or 5 mg/kg as a single intravenous injection. M-550426 was administrated per orally at 300 μmol/kg 3 hours before termination. A blank group was also included in the study.
Blood was sampled from vehicle- and compound-treated animals at 1.5 and 3 hours after dose. Blood was withdrawn from anaesthetized mice by heart puncture into pre-chilled microtainer tubes containing EDTA. Blood samples were immediately put on ice prior to centrifugation. Plasma was prepared by centrifugation for 10 minutes at approximately 3000×g at +4° C. within 20 minutes from sampling. After blood sampling, mice were terminated. […] Mouse Aβ40 levels in plasma were analysed by commercial ELISA kit obtained from Biosource. The concentrations of Fc-Nep in plasma and in the formulations were assayed according to the procedures described in Example 27.

[1] = Plasma exposure (Example 25); format: in vivo, C57BL/6 mice; settings: for Mean plasma exposure: 5 mg/kg i.v.
Protocol: 20-21 weeks old female C57BL/6 mice (8 mice/group) received vehicle or hFc-Nep at 5 mg/kg as a single intravenous injection and Aβ40 was analysed at different time points after injection (between 1.5-168 hours, i.e., up to 1 week). The γ-secretase inhibitor M-550426 was given per orally and the animals were treated for 3 hours. A blank group was also included in the study. […] Blood collection, plasma processing and measurement of mouse Aβ40 levels in plasma were basically as described in Example 27.

[2] = tested on: fluorogenic peptide substrate V—Mca-Arg-Pro-Gly-Phe-Ser-Ala-Phe-Lys(Dnp)-OH; test: Neprilysin enzyme activity FRET assay, cell media; format: biochemical
Protocol: The Neprilysin enzymatic activity was determined in a fluorescence resonance energy transfer (FRET) assay. Recombinant Human Neprilysin (R&D Systems), culture medium from Neprilysin or Fc-Neprilysin producing cells (AZ Sodertalje) or purified Neprilysin or Fc-Neprilysin was added into 96-well plate containing 10 μM of fluorogenic peptide substrate V—Mca-Arg-Pro-Gly-Phe-Ser-Ala-Phe-Lys(Dnp)-OH (R&D Systems). The final concentration of the control recombinant human Neprilysin was 0.1 or 0.25 μg/ml. 10 μM of Neprilysin inhibitor phosphoramidone (BIOMOL) was added into some wells in order to control the specificity of the signal in the assay and verify the specific Neprilysin activity. Following addition of all components to wells, plate was immediately placed into a fluorescent plate reader (Ascent) and signal was recorded for every minute for 20 minutes at the excitation 340 nm and emission 405 nm. The activity of enzyme was evaluated by calculating the velocity of reaction−Slope coefficient=ΣΔRFU/Δt. In order to compare the specific activity of the commercial recombinant Neprilysin and Fc-Neprilysin fusion protein, we introduced the specific activity coefficient, which is calculated according to this formula: Specific activity=slope coefficient/pmol of Neprilysin or monomer of Fc-Neprilysin in assay. […]

[3] = Observations of animal health (Example 24); format: in vivo, C57BL/6 mice; settings: 1 or 5 mg/kg single i.v., whole experiment
[4] = Pharmacokinetics of Fc-Nep and in-house produced Neprilysin, single i.v. dose (Example 27); format: in vivo; settings: mice, single i.v. dose 10 or 50 nmol enzyme/kg (1 and 5 mg/kg)
Protocol: The Fc-Nep fusion protein was developed to improve the pharmacokinetic entities of neprilysin with the specific aims to reduce clearance and improve half-life. To test this we have administrated a single i.v. dose of 10 or 50 nmol enzyme/kg body weight neprilysin (Nep) or Fc-Nep (1 and 5 mg/kg) to mice. At set times the dose blood samples were drawn from the tail vein or by heart puncture at termination. Upon sampling into tubes containing EDTA the aliquots were put on ice. Plasma was prepared by centrifugation within 15 minutes of sampling (typically 1500 g at 4° C. for 10 min) and immediately frozen. Plasma concentrations of Nep and Fc-Nep were determined via immunoassays using either anti-Nep for Nep or anti-human IgG for Fc-Nep as capture antibodies while both substances were detected via an anti-Nep antibody. Pharmacokinetic parameters are calculated using a software package (WinNonlin, Pharsight Corporation, USA) and in this example experiment the calculated half-life had increased from about 1 day for Nep to about 2.5 weeks for Fc-Nep.

B1: Fc-Neprilysin: extracellular domain of human Neprilysin fused to the human IgG2 Fc domain (including hinge), Fc at N-terminus; SEQ ID NO 11 (protein)
chain: ERKCCVECPPCPAPPVAGPSVFLFPPKPKDTLMISRTPEVTCVVVDVSHEDPEVQFNWYVDGVEVHNAKTKPREEQFNSTFRVVSVLTVVHQDWLNGKEYKCKVSNKGLPAPIEKTISKTKGQPREPQVYTLPPSREEMTKNQVSLTCLVKGFYPSDIAVEWESNGQPENNYKTTPPMLDSDGSFFLYSKLTVDKSRWQQGNVFSCSVMHEALHNHYTQKSLSLSPGKYDDGICKSSDCIKSAARLIQNMDATTEPCTDFFKYACGGWLKRNVIPETSSRYGNFDILRDELEVVLKDVLQEPKTEDIVAVQKAKALYRSCINESAIDSRGGEPLLKLLPDIYGWPVATENWEQKYGASWTAEKAIAQLNSKYGKKVLINLFVGTDDKNSVNHVIHIDQPRLGLPSRDYYECTGIYKEACTAYVDFMISVARLIRQEERLPIDENQLALEMNKVMELEKEIANATAKPEDRNDPMLLYNKMTLAQIQNNFSLEINGKPFSWLNFTNEIMSTVNISITNEEDVVVYAPEYLTKLKPILTKYSARDLQNLMSWRFIMDLVSSLSRTYKESRNAFRKALYGTTSETATWRRCANYVNGNMENAVGRLYVEAAFAGESKHVVEDLIAQIREVFIQTLDDLTWMDAETKKRAEEKALAIKERIGYPDDIVSNDNKLNNEYLELNYKEDEYFENIIQNLKFSQSKQLKKLREKVDKDEWISGAAVVNAFYSSGRNQIVFPAGILQPPFFSAQQSNSLNYGGIGMVIGHEITHGFDDNGRNFNKDGDLVDWWTQQSASNFKEQSQCMVYQYGNFSWDLAGGQHLNGINTLGENIADNGGLGQAYRAYQNYIKKNGEEKLLPGLDLNHKQLFFLNFAQVWCGTYRPEYAVNSIKTDVHSPGNFRIIGTLQNSAEFSEAFHCRKNSYMNPEKKCRVW
In the case of B1, the “Reduction of mouse Aβ40 in plasma compared to vehicle” value (“Reduction of mouse Aβ40 in plasma” for short) (mouse Aβ40; 1 mg/kg i.v., 1.5 hours, p=0.1638) is reported as 17%, the “Reduction of mouse Aβ40 in plasma” value (mouse Aβ40; 1 mg/kg i.v., 3 hours, p<0.005) is reported as 36% and the “Reduction of mouse Aβ40 in plasma” value (mouse Aβ40; 5 mg/kg i.v., 1.5 hours, p<0.0001) is reported as 76%. For the same molecule, the “Reduction of mouse Aβ40 in plasma” value (mouse Aβ40; 5 mg/kg i.v., 3 hours, p<0.0001) was 72%, the Mean plasma exposure ([1]; 1 week (168 hours)) was 38 µg/mL and the Mean plasma exposure ([1]; 1.5 hours) was 87 µg/mL. For the same molecule, the half-life in mice ([1]; 5 mg/kg single i.v.) was “considerably long”, the “Specific activity (slope coefficient/pmol)” value ([2]; expression with pCEP4 vector) was 13.4 and the “Specific activity (slope coefficient/pmol)” value ([2]; expression with pEAK10 vector) was 15.2. For the same molecule, the “Observations of the animal health” value [3] was “no overt adverse effects” and the calculated half-life [4] was “about 2.5 weeks”.
